Laboratory results published in PMC3897551.

Molecular target: tubulin dimers
Assay: MST

Sequence of tubulin dimers (P68363 whole entry, chain 1 of 2): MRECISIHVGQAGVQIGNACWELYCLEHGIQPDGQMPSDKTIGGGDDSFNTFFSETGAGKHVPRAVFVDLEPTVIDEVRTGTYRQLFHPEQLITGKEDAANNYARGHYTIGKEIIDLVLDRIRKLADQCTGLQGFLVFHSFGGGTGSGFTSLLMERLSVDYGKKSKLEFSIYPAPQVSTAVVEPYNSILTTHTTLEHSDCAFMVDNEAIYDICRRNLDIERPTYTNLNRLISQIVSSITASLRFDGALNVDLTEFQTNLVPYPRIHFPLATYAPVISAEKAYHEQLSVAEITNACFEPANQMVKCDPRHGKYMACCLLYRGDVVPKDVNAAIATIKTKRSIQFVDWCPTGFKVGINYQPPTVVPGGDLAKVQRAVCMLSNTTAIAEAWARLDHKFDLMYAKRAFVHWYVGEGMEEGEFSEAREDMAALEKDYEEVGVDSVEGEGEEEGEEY
Sequence of tubulin dimers (A8K068 whole entry, chain 2 of 2, further chain): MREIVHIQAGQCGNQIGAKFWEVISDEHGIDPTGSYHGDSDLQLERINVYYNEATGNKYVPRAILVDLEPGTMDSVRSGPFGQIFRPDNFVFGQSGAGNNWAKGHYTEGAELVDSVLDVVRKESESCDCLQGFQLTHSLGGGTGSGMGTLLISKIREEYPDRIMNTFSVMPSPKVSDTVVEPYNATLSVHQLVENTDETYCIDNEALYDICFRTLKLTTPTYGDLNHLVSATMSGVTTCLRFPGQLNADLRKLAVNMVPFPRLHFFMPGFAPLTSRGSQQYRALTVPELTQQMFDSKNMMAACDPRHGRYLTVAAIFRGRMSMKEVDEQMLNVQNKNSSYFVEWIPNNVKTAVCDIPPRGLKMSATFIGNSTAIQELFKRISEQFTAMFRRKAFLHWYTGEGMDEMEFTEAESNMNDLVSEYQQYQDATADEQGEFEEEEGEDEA

B1: GMΔNT phosphorylated by Aurora B/INCENP, Q91636 187-730 (domain or fragment)
chain: GRNNQGRRKSNIVKEMEKMKNKREEQRAQNYERRMKRAQDYDTSVPNWEFGKMIKEFRATMDCHRISMADPAEEHRICVCVRKRPLNKQELSKKEIDIISVPSKNIVLVHEPKLKVDLTKYLENQAFRFDFSFDETATNEVVYRFTARPLVQSIFEGGKATCFAYGQTGSGKTHTMGGDFSGKSQNVSKGVYAFASRDVFLLLDQPRYKHLDLDVFVTFFEIYNGKVFDLLNKKTKLRVLEDAKQEVQVVGLLEKQVISADDVFKMIEIGSACRTSGQTFANTSSSRSHACLQIILRRGSKLHGKFSLVDLAGNERGVDTASADRITRMEGAEINRSLLALKECIRALGQNKSHTPFRESKLTQILRDSFIGENSRTCMIAMLSPGFNSCEYTLNTLRYADRVKELSPQNAETNDDNLQMEDSGGSHASIEGLQLQDDFLLKDEELSTHNSFQDALNRVGELEDKAVDELRELVQKEPEWTNLLQMTEQPDYDLENFVMQAEYLIQERSKVLIALGDSINSLRLALQVEEQASKQISKKKRSNK
modifications: here or on the partner: phosphorylated by Aurora B/INCENP (S196 is retained in this region)
Work on B1 yielded a fold increase in Kd against non-phosphorylated GMΔNT of 16 fold.
